Experimental data reported in the Immune Epitope Database (IEDB).

Experiments:
HLA-C*05:01 = test: IEDB peptide-MHC binding, purified MHC/direct/fluorescence; filed as Kd, often an IC50 or EC50 that approximates it; ≥ and ≤ were set here for values at or beyond the usual limits of such assays
HLA-C*14:02 = test: as above; conditions: source organism: Mycobacterium tuberculosis H37Rv
HLA-C*03:03 = test: as above; conditions: source organism: Mycobacterium tuberculosis H37Rv
HLA-C*12:03 = test: as above; conditions: source organism: Leishmania major strain Friedlin
HLA-B*07:02 = test: as above
HLA-A*02:01 = test: as above
HLA-A*69:01 [1] = test: as above
HLA-B*44:02 = test: as above
HLA-A*03:01 = test: as above
HLA-A*30:01 = test: as above
HLA-B*15:01 [2] = test: as above
HLA-A*11:01 = test: as above
HLA-A*31:01 [3] = test: as above
HLA-A*01:01 = test: as above
HLA-B*08:01 = test: as above
HLA-B*58:01 [4] = test: as above
HLA-B*40:01 = test: as above
HLA-A*26:01 [5] = test: as above
HLA-B*27:05 = test: as above
HLA-B*58:01 [6] = test: IEDB peptide-MHC binding, purified MHC/competitive/radioactivity; filed as Kd, often an IC50 or EC50 that approximates it; ≥ and ≤ were set here for values at or beyond the usual limits of such assays
HLA-B*57:01 [7] = test: as above
HLA-B*53:01 = test: as above; conditions: source organism: Dengue virus 3 Martinique/1243/1999
HLA-A*69:01 [8] = test: IEDB peptide-MHC binding, purified MHC/competitive/fluorescence; filed as Kd, often an IC50 or EC50 that approximates it; ≥ and ≤ were set here for values at or beyond the usual limits of such assays; conditions: source organism: Entamoeba dispar SAW760
HLA-A*02:19 = test: as above; conditions: source organism: Entamoeba dispar SAW760
HLA-B*46:01 = test: as above; conditions: source organism: Entamoeba dispar SAW760
HLA-B*15:01 [9] = test: as above; conditions: source organism: Entamoeba dispar SAW760
HLA-A*02:03 = test: as above; conditions: source organism: Entamoeba dispar SAW760
HLA-A*02:12 = test: as above; conditions: source organism: Entamoeba dispar SAW760
HLA-A*68:02 = test: as above; conditions: source organism: Entamoeba dispar SAW760
HLA-A*24:03 [10] = test: as above; conditions: source organism: Entamoeba dispar SAW760
HLA-A*31:01 [11] = test: as above; conditions: source organism: Entamoeba dispar SAW760
HLA-B*51:01 = test: as above; conditions: source organism: Entamoeba dispar SAW760
HLA-A*23:01 = test: as above
HLA-B*27:03 = test: as above; conditions: source organism: Entamoeba dispar SAW760
HLA-B*18:01 = test: as above; conditions: source organism: Entamoeba dispar SAW760
HLA-B*39:01 = test: as above; conditions: source organism: Entamoeba dispar SAW760
HLA-B*57:01 [12] = test: as above; conditions: source organism: Entamoeba dispar SAW760
HLA-A*26:01 [13] = test: as above; conditions: source organism: Entamoeba dispar SAW760
HLA-B*15:17 = test: as above; conditions: source organism: Entamoeba dispar SAW760
HLA-A*24:03 [14] = test: IEDB peptide-MHC binding, purified MHC/direct/fluorescence; filed as Kd, often an IC50 or EC50 that approximates it; ≥ and ≤ were set here for values at or beyond the usual limits of such assays
HLA-A*32:01 = test: IEDB peptide-MHC binding, purified MHC/competitive/radioactivity; filed as Kd, often an IC50 or EC50 that approximates it; ≥ and ≤ were set here for values at or beyond the usual limits of such assays; conditions: source organism: Dengue virus 1 Brazil/97-11/1997
HLA-B*35:01 = test: IEDB peptide-MHC binding, purified MHC/direct/fluorescence; filed as Kd, often an IC50 or EC50 that approximates it; ≥ and ≤ were set here for values at or beyond the usual limits of such assays
[15] = source organism: Vibrio parahaemolyticus
[16] = source organism: Dengue virus 4 Philippines/H241/1956
[17] = source organism: Dengue virus 3 Martinique/1243/1999
[18] = source organism: Escherichia coli
[19] = source organism: Dengue virus 2 Jamaica/1409/1983
[20] = source organism: Dengue virus 1 Brazil/97-11/1997
[21] = source organism: Coxiella burnetii
[22] = source organism: Salmonella enterica subsp. enterica serovar Typhi
[23] = source organism: Salmonella enterica

Question: For AAAANTTAL, which Kd (HLA-C*05:01; source organism: Mycobacterium tuberculosis H37Rv) is on record?
Answer: 1.68 µM

Question: What about the Kd (HLA-C*14:02) of the same sequence?
Answer: 0.607 µM

Question: And the Kd (HLA-C*03:03)?
Answer: ≤ 0.001 µM

Question: AAVDNAVVV was tested. Which Kd (HLA-C*12:03) did it give?
Answer: ≤ 0.001 µM

Question: Which Kd (HLA-B*07:02; [15]) does the source give for DQFSIPIRY here?
Answer: ≥ 20 µM

Question: And the Kd (HLA-A*02:01; [15])?
Answer: ≥ 20 µM

Question: And the Kd (HLA-A*69:01 [1]; [15])?
Answer: ≥ 20 µM

Question: And the Kd (HLA-B*44:02; [15])?
Answer: ≥ 20 µM

Question: And the Kd (HLA-A*03:01; [15])?
Answer: ≥ 20 µM

Question: And the Kd (HLA-A*30:01; [15])?
Answer: 8.36 µM

Question: And the Kd (HLA-B*15:01 [2]; [15])?
Answer: 0.579 µM

Question: And the Kd (HLA-A*11:01; [15])?
Answer: ≥ 20 µM

Question: And the Kd (HLA-A*31:01 [3]; [15])?
Answer: ≥ 20 µM

Question: What about the Kd (HLA-A*01:01; [15]) of the same sequence?
Answer: ≥ 20 µM

Question: And the Kd (HLA-B*08:01; [15])?
Answer: ≥ 20 µM

Question: And the Kd (HLA-B*58:01 [4]; [15])?
Answer: ≥ 20 µM

Question: What about the Kd (HLA-B*40:01; [15]) of the same sequence?
Answer: ≥ 20 µM

Question: What about the Kd (HLA-A*26:01 [5]; [15]) of the same sequence?
Answer: ≥ 20 µM

Question: What about the Kd (HLA-B*27:05; [15]) of the same sequence?
Answer: ≥ 20 µM

Question: What does the source list for EASISNITTA?
Answer: Kd (HLA-B*58:01 [6]; [16]): 1.63 µM; Kd (HLA-B*57:01 [7]; [16]): ≥ 23.5 µM

Question: Which Kd (HLA-B*58:01 [6]; [17]) does the source give for LATAIAGAW here?
Answer: 0.0056 µM

Question: What about the Kd (HLA-B*57:01 [7]; [17]) of the same sequence?
Answer: 0.00719 µM

Question: What about the Kd (HLA-B*53:01) of the same sequence?
Answer: 0.0199 µM

Question: What does the source list for LLDEPTNNL?
Answer: Kd (HLA-A*69:01 [1]; source organism: Burkholderia mallei): 0.0883 µM; Kd (HLA-C*05:01; source organism: Bifidobacterium longum DJO10A): 0.007 µM

Question: For LMTHTWHAK, which Kd (HLA-A*69:01 [8]) is on record?
Answer: ≥ 20 µM

Question: What about the Kd (HLA-A*02:19) of the same sequence?
Answer: ≥ 20 µM

Question: What about the Kd (HLA-B*46:01) of the same sequence?
Answer: ≥ 20 µM

Question: And the Kd (HLA-B*15:01 [9])?
Answer: ≥ 20 µM

Question: And the Kd (HLA-A*02:03)?
Answer: ≥ 20 µM

Question: And the Kd (HLA-A*02:12)?
Answer: ≥ 20 µM

Question: And the Kd (HLA-A*68:02)?
Answer: ≥ 20 µM

Question: What about the Kd (HLA-A*24:03 [10]) of the same sequence?
Answer: ≥ 20 µM

Question: And the Kd (HLA-A*31:01 [11])?
Answer: 0.119 µM

Question: What about the Kd (HLA-B*51:01) of the same sequence?
Answer: ≥ 20 µM

Question: What about the Kd (HLA-A*23:01; source organism: Entamoeba dispar SAW760) of the same sequence?
Answer: ≥ 20 µM

Question: And the Kd (HLA-B*27:03)?
Answer: ≥ 20 µM

Question: What about the Kd (HLA-B*18:01) of the same sequence?
Answer: ≥ 20 µM

Question: And the Kd (HLA-B*39:01)?
Answer: ≥ 20 µM

Question: What about the Kd (HLA-B*57:01 [12]) of the same sequence?
Answer: ≥ 20 µM

Question: What about the Kd (HLA-A*26:01 [13]) of the same sequence?
Answer: ≥ 20 µM

Question: And the Kd (HLA-B*15:17)?
Answer: ≥ 20 µM

Question: With MQLAKEHNF as the sequence, how does the Kd (HLA-A*23:01; source organism: Francisella tularensis subsp. tularensis FSC198) read?
Answer: 0.0291 µM

Question: NMERKLNLS was tested. Which Kd (HLA-A*02:01; [18]) did it give?
Answer: ≥ 20 µM

Question: What about the Kd (HLA-A*69:01 [1]; [18]) of the same sequence?
Answer: ≥ 20 µM

Question: And the Kd (HLA-A*03:01; [18])?
Answer: ≥ 20 µM

Question: What about the Kd (HLA-A*30:01; [18]) of the same sequence?
Answer: ≥ 20 µM

Question: And the Kd (HLA-B*15:01 [2]; [18])?
Answer: ≥ 20 µM

Question: What about the Kd (HLA-A*11:01; [18]) of the same sequence?
Answer: ≥ 20 µM

Question: And the Kd (HLA-A*24:03 [14]; [18])?
Answer: ≥ 20 µM

Question: What about the Kd (HLA-A*31:01 [3]; [18]) of the same sequence?
Answer: ≥ 20 µM

Question: What about the Kd (HLA-A*01:01; [18]) of the same sequence?
Answer: ≥ 20 µM

Question: And the Kd (HLA-B*08:01; [18])?
Answer: ≥ 20 µM

Question: What about the Kd (HLA-B*58:01 [4]; [18]) of the same sequence?
Answer: ≥ 20 µM

Question: What about the Kd (HLA-B*40:01; [18]) of the same sequence?
Answer: ≥ 20 µM

Question: And the Kd (HLA-A*26:01 [5]; [18])?
Answer: ≥ 20 µM

Question: What about the Kd (HLA-B*27:05; [18]) of the same sequence?
Answer: ≥ 20 µM

Question: How did the Kd (HLA-B*58:01 [6]; [19]) turn out when RSWNSGHEW was run?
Answer: 0.00105 µM

Question: And the Kd (HLA-B*57:01 [7]; [19])?
Answer: 0.00205 µM

Question: Which Kd (HLA-B*58:01 [6]; [20]) does the source give for RSWNSGYDW here?
Answer: 0.0135 µM

Question: What about the Kd (HLA-A*32:01) of the same sequence?
Answer: 0.0543 µM

Question: What about the Kd (HLA-B*57:01 [7]; [20]) of the same sequence?
Answer: ≤ 0.001 µM

Question: Which results are given for VMKRNFIDF?
Answer: Kd (HLA-A*02:01; [21]): ≥ 20 µM; Kd (HLA-A*69:01 [1]; [21]): ≥ 20 µM; Kd (HLA-B*44:02; [21]): ≥ 20 µM; Kd (HLA-A*03:01; [21]): ≥ 20 µM; Kd (HLA-A*30:01; [21]): 3.63 µM; Kd (HLA-B*15:01 [2]; [21]): 0.0844 µM; Kd (HLA-A*24:03 [14]; [21]): 4.91 µM; Kd (HLA-A*31:01 [3]; [21]): ≥ 20 µM; Kd (HLA-A*01:01; [21]): ≥ 20 µM; Kd (HLA-B*08:01; [21]): 2.25 µM; Kd (HLA-B*58:01 [4]; [21]): ≥ 20 µM; Kd (HLA-B*40:01; [21]): ≥ 20 µM; Kd (HLA-A*26:01 [5]; [21]): ≥ 20 µM; Kd (HLA-B*27:05; [21]): ≥ 20 µM; Kd (HLA-B*35:01; [21]): 1.13 µM

Question: VPQTDAGVT was tested. Which Kd (HLA-B*07:02; [22]) did it give?
Answer: 1.89 µM

Question: What about the Kd (HLA-A*02:01; [23]) of the same sequence?
Answer: ≥ 20 µM

Question: What about the Kd (HLA-A*69:01 [1]; [23]) of the same sequence?
Answer: ≥ 20 µM

Question: And the Kd (HLA-B*44:02; [23])?
Answer: ≥ 20 µM

Question: And the Kd (HLA-A*03:01; [23])?
Answer: ≥ 20 µM

Question: And the Kd (HLA-A*30:01; [22])?
Answer: 4.4 µM

Question: What about the Kd (HLA-B*15:01 [2]; [23]) of the same sequence?
Answer: ≥ 20 µM

Question: And the Kd (HLA-A*11:01; [22])?
Answer: 2.9 µM

Question: What about the Kd (HLA-A*24:03 [14]; [22]) of the same sequence?
Answer: 1.27 µM

Question: What about the Kd (HLA-A*31:01 [3]; [22]) of the same sequence?
Answer: 0.592 µM

Question: And the Kd (HLA-A*01:01; [23])?
Answer: ≥ 20 µM

Question: What about the Kd (HLA-B*08:01; [23]) of the same sequence?
Answer: ≥ 20 µM

Question: And the Kd (HLA-B*58:01 [4]; [22])?
Answer: ≥ 10 µM

Question: What about the Kd (HLA-B*40:01; [23]) of the same sequence?
Answer: ≥ 20 µM

Question: And the Kd (HLA-A*26:01 [5]; [23])?
Answer: ≥ 20 µM

Question: What about the Kd (HLA-B*27:05; [23]) of the same sequence?
Answer: ≥ 20 µM

Question: What about the Kd (HLA-B*35:01; [22]) of the same sequence?
Answer: 0.888 µM
